B1: Fatty acid-binding protein, intestinal, P02693 (parent)
chain: MAFDGTWKVDRNENYEKFMEKMGINVVKRKLGAHDNLKLTITQEGNKFTVKESSNFRNIDVVFELGVDFAYSLADGTELTGTWTMEGNKLVGKFKRVDNGKELIAVREISGNELIQTYTYEGVEAKRIFKKE

Variants of B1 are the subject of the data set. To be noted: Rattus norvegicus; pH 7.3; 20 °C; GdnHCl; Fluorescence; potassium phosphate 20 mM; structure 1IFB; whole UniProt chain shown.

Turning to G45P, the “denaturant midpoint (higher = more stable)” value (shortened to “denaturant midpoint”) turned out to be 0.8 M and the unfolding free energy was determined as 3.1 kcal/mol.
As to G111P, the “denaturant midpoint” value was found to be 1 M and the unfolding free energy stood at 5 kcal/mol.
As to G122P, the “denaturant midpoint” value was 0.6 M and the unfolding free energy came out at 1.2 kcal/mol.
For G100P, the “denaturant midpoint” value is 0.7 M and the unfolding free energy amounted to 3.5 kcal/mol.
Taken in the same sequence, the figures for G66P were 0.9 M and 2.5 kcal/mol.

The record behind these values is FireProtDB (doi:10.1021/bi012042l).
